Measured values taken from the DeepSol protein solubility set.

Assay: soluble on expression in E. coli; label from the status in PepcDB or PDB records

## MAVTEVKLNAPLAVGVWAKMLNTETSKALPIAPLMGKSKNSIIQVLDMLEKSAGDAVTSGLRVQLMGDGVSEGQTLEGNEEALQFMNEKVHINELTHAVRIKYEGSIDQQRIPFSLRQEAKDGLVDWYADRLSLMFFIQAAGYTAPWMQFEGRTITLKPVHYGFNAPSEPSKLRVIRPAKKKTDEELTKEDVFTLDLIDQAVERAKLANPRLRPVRVDGKSAYVMYLHPIQVTQLRTNTKSGQWLDITKAAYDGSGAKNPIFNGSLGMYNGVILREAEHVPNGVNSKTQEPVPSVRRAVLLGAQSIIMAYGRIGNGATGSNEENSETRYKLVEELFDYQREFGLAAKTIIGMKKSRYTLPHSDQGGQDFGTIVIPSFAEAS
  soluble on expression in E. coli: not soluble

## MADLQKNFQTSFRDAMASCAAGVHVITTDGAAGRYGITMTAVAPVTDEPPTVMLCINRSARIIPILSENGSLCINTLADEHQDVAEHFAGLTGLSPEERFAYHIWHRGKTGQLEIEGALAHLHGHIVGKHEIGTHFVFYVRLDEIKNCGCKRPALLYFRRQFRFLD
  soluble on expression in E. coli: not soluble

## PGSEFELGNKGNNILNSNESRLNVNENNILREKFENYARIVFQFNNSRQANGNFDIANEFISILSSANGTRNAQLLESWKILESMKSKDINIVEVGKQYLEQQFLQYTDNLYKKNMNEGLATNVNKIKSFIDTKLKKADKSWKISNLTVINGVPIWALIFYLLRAGLIKEALQVLVENKANIKKVEQSFLTYFKAYASSKDHGLPVEYSTKLHTEYNQHIKSSLDGDPYRLAVYKLIGRCDLSRKNIPAVTLSIEDWLWMHLMLIKEKDAENDPVYERYSLEDFQNIIISYGPSRFSNYYLQTLLLSGLYGLAIDYTYTFSEMDAVHLAIGLASLKLFKIDSSTRLTKKPKRDIRFANILANYTKSFRYSDPRVAVEYLVLITLNEGPTDVELCHEALRELVLETKEFTVLLGKIGRDGARIPGVIEERQPLLHVRDEKEFLHTITEQAARRADEDGRIYDSILLYQLAEEYDIVITLVNSLLSDTLSASDLDQPLVGPDDNSETNPVLLARRMASIYFDNAGISRQIHVKNKEICMLLLNISSIRELYFNKQWQETLSQMELLDLLPFSDELSARKKAQDFSNLDDNIVKNIPNLLIITLSCISNMIHILNESKYQSSTKGQQIDSLKNVARQCMIYAGMIQYRMPRETYSTLINIDVSL
  soluble on expression in E. coli: soluble

## MTKETYPKATVLDISASVEYSDGGIISKQVLKNEVGNITLFSFDQGQGLSEHTAPFDAFVQILEGEAEIRIGGQPLLLKAGRSVIMPANVSHALHATKRFKMLLTMIRG
  soluble on expression in E. coli: not soluble

## MEMYFKRMKDEWTGLVEQADPPIRAKAAEIAVAHAHYLSIEFYRIVRIDPHAEEFLSNEQVERQLKSAMERWIINVLSAQVDDVERLIQIQHTVAEVHARIGIPVEIVEMGFRVLKKILYPVIFSSDYSAAEKLQVYHFSINSIDIAMEVMTRAFTFSDSLEHHHHHH
  soluble on expression in E. coli: not soluble

## MNAVHFGAGNIGRGFIGEILAKNGFHITFVDVNETIIQALKERKSYTIELADASHQQINVENVTGLNNMTEPEKVVEAIAEADLVTTAIGPNILPRIAELIAQGIDARAEANCQKPLDIIACENMIGGSTFLAEEVAKYLKNPAYAEQWIGFPDAAVDRIVPLQKHEDPLFVQVEPFCEWVIDDTNRKAKEIQLEGVHYVAD
  soluble on expression in E. coli: not soluble

## MGHHHHHHSHMGRGSGTFERLLDKATSQLLLETDWESILQICDLIRQGDTQAKYAVNSIKKKVNDKNPHVALYALEVMESVVKNCGQTVHDEVANKQTMEELKDLLKRQVEVNVRNKILYLIQAWAHAFRNEPKYKVVQDTYQIMKVEGHVFPEFKESDAMFAAERAPDWVDAEECHRCRVQFGVMTRKHHCRACGQIFCGKCSSKYSTIPKFGIEKEVRVCEPCYEQLNRKAEGK
  soluble on expression in E. coli: soluble

## MGSDKIHHHHHHMPVMFQQMQYFIAIVNNHSFTQAAVDCHISQSAISQQMKELESQLGVKLLNRKGRSFEVTEAGQYFYIHSQDILADVDQLIKKTIKIEKNDEVELRVGYLRSFGTAEFLQTVSKFTQEFPKVKIKISSGTHEELYELLQTGKIDLNFSDQRRALSNEYQNEFLTASEFMVAVNNSLPVETQKIDVADLVDIPCILIIDGHQQVSEEEYYRNVLGVKSEFVIAKSYDEAQMLIASNQGYLIINQRMRTQLDKDIVKMISLVKGDRKLIQNYYAYWQANNSGYYIETFAELLKQTFA
  soluble on expression in E. coli: not soluble

## MSLSKIKSVRTRVWNWTGPTVPPTGNFCTNASDVLWDKGDAMSSFRFHQWLTCEVETDDGTIGIGNAALAPTVVKKAIDDWFAPMVIGEDPFDYAYLWEKMYRRSHAWGRKGIGMTAISAVDLAIWDLMGKLTGKPVFKLLGGRTKEKIPVYYSKLYSGPIDTMQAEAEEARKNNYPGYKMRFGWGPKDGMAGMRENLKRVEAVREVIGYDVDLMLECYQGWNLDYTKRMLPKLVKYEPRWLEEPVIADDVEGYRELNAMNIVPISGGEHEFSVIGCKDLIEKKAVSVLQYDTNRVGGITAAQKINAIAEAFQVPVIPHAGQMHNYHLTMANANCMISEYFPVFDVEVGNELFYYIFEGDPAAVDGFLDLDDNIPGLGISITDKYLKHFEIQEEGHHHHHH
  soluble on expression in E. coli: soluble

## MTAPTLAPIDPPARAQLLTDLQGAPDWDVIVIGGGATGLGTAVDAAARGYRTLLVEAADFAKGTSSKATKLVHGGVRYLAQGNISLVREALHERGLLNRNAPHLVWPLGFVVPAYSLLDQPFYGVGLKMYDMLAGKLNLAPSRWLSRGETLRHAATVAERVNGRALRGGILYYDGQFDDARLAIALMRTLYDLGGVALNYARAVGLTRTDGRVDGVTVADALGELRVTLRAKCVVNATGVWVDAVRRMDDPAAQTMVAPSQGVHLTLPRDFLPGEDAILIPKTDDGRVLFVVPWNGHTIVGTTDTPRTDLPLDPQAGQNEIDFILATAARYLSRKPTRADVTSVWAGLRPLVKATGEASTKSLSREHTIVVSKGGLVTVTGGKWTTYRKMAQDVVDTAIEHKLLAAAPCRTSELPLHGAPADGQPNGAPHGTPDSYYGTDLATLRALPGADRMLVKASALTEAHVRYAARHELARTVEDVLARRNRALFLDAEAALLAAPEVARILAQELGHDEAWSRATLAEFEAVAAHYRLALEHHHHHH
  soluble on expression in E. coli: not soluble

## MFVRVMKIAQNKKIVTVYPTTTIRKALMTMNENKYRRLPVVNAGNNKVVGIITSMDIVDFMGGGSKYNLIREKHERNFLAAINEPVREIMEENVITLKENADIDEAIETFLTKNVGGAPIVNDENQLISLITERDVIRALLDKIDENEVIDDYITRDVIVATPGERLKDVARTMVRNGFRRLPVVSEGRLVGIITSTDFIKLLGSDWAFNHMQTGNVREITNVRMEEIMKRDVITAKEGDKLKKIAEIMVTNDIGALPVVDENLRIKGIITEKDVLKYFA
  soluble on expression in E. coli: soluble

## MMNALELQALRRIFDMTIEECTIYITQDNNSATWQRWEAGDIPISPEIIARLKEMKARRQRRINAIVDKINNRIGNNTMRYFPDLSSFQSIYTEGDFIEWKIYQSVAAELFAHDLERLC
  soluble on expression in E. coli: soluble

## MGSDKIHHHHHHMLSRTASELFWMARYLERAESYARVLDVTWKLSMIPRHSQQSRDLALPLNLSMTHELFQARHARFTMSNLLNFFALDGNNPCSIYSCVEMAWNNAHAVRGSLSAEVWESINATRIELRTLRQQGLGELGSDGFFEWVKERVHLFRGAVIGTLLRNDALSFIGIGTLIERAFATTQLLLIKDQQLTNDPDPVREYYRLDTLLNAVSAREAYNSLYRQPVSRETVMELLILRNDIPRSLRASIADLVGELEKIANDRSYQPLRLAHQLNVDLRFSTRDDLAQADLQTTLNGLLARINALSDSIRQTYLEAL
  soluble on expression in E. coli: not soluble

## MAHHHHHHMCDTANEADGKKLNKKAKSISVVKFKDKEKKKFVSLSSKEETSVQDLPLGCPVCYVPLTVDFNLLNQVEEQDEEEMIVCKEETTYINKSFINRINTNEYRSSTKIEAVFEEVKNVIHTTDDKCLIFSQYCSMLDLIEYHLKKHNIICSKLLGYMPMVSRNNILYNFNEDKHLRVLLISLKAGGEGLNLQVANRIFIVDPWWNPAAELQAIQRAHRIGQTKTVYATRFIIENTVEEKIVQLQNKKQLVFDCTIGDSGNAMQKLTKEDLAFLFHA
  soluble on expression in E. coli: not soluble

## MGSDKIHHHHHHMWTILCDKDSGGVLLRKGVSTSIIRSNPDLLEALPKAELYELGFFKAEDLEKVLRFFHDKNFGIHAPFIYRYRYHHPNPTSLNEEEREDTFSVNKKCAELARKIGAEYMIIHFPNALQKENWLSVYREVEREFSELAGVISVRVENVYGNDHFHSAEDYRTFLENTGCKMCVDIGHLLLDAEVYGFSPIEFIEKLSDFVEEFHIYYADFETYKKCHHAPWGESKEFLEVLEFIKDFDADFVLEPTPECEEGLEKLFEYWRDL
  soluble on expression in E. coli: not soluble
